Laboratory results reported in article PMC13438699 (Nature Communications, 2026).

Tests used:
[1] = target: A/Texas/37/2024 (H5N1) HA (Influenza A virus A/Texas/37/2024 (H5N1), strain); test: BLI; conditions: both partners purified
[2] = target: T1, A/Solomon Islands/3/2006 (H1N1) HA (influenza A virus A/Solomon …); test: cryo-EM structure; conditions: both partners purified
[3] = target: T2, A/Michigan/45/2015 (H1N1) HA (Influenza A virus A/Michigan/45/2015 …, UniProt A0A1J0CXU0, strain); test: BLI; conditions: both partners purified
[4] = target: T3, A/Taiwan/01/1986 (H1N1) HA (Influenza A virus A/Taiwan/1/1986 (H1N1), UniProt F5CU03, strain); test: ELISA; conditions: one partner purified
T3 construct: source: bought: Sino Biological

[5] = target: T1, A/Solomon Islands/3/2006 (H1N1) HA; test: ELISA; conditions: one partner purified
[6] = target: T4, A/California/07/2009 (H1N1) HA (Influenza A virus A/California/07/2009 …, UniProt C3W5X2, strain); test: ELISA; conditions: one partner purified
T4 construct: source: bought: BEI Resources (NR-42635)

[7] = target: T5, A/USSR/90/1977 (H1N1) HA (Influenza A virus A/USSR/90/1977 (H1N1), UniProt P03453, strain); test: ELISA; conditions: one partner purified
T5 construct: source: bought: Sino Biological

[8] = target: T2, A/Michigan/45/2015 (H1N1) HA; test: ELISA; conditions: one partner purified
[9] = target: A/Beijing/262/1995 (H1N1) HA (Influenza A virus A/Beijing/262/1995 …, UniProt B4UPF7, strain); test: ELISA; conditions: one partner purified
[10] = target: T6, A/Japan/305/1957 (H2N2) HA (Influenza A virus A/Japan/305/1957 …, UniProt Q0A2X3, strain); test: ELISA; conditions: one partner purified
T6 construct: source: Sf9, baculovirus, purified from supernatant (Ni Sepharose Excel, SEC)

Binder | binding result [2] | binding result [3] | binding result [4] | binding result [5] | binding result [6] | binding result [7] | also measured
HB31 wild type (WT) Fab (Fab, V domains shown, also called HB31 WT Fab; HB31 Fab; source: Expi293F, transiently co-transfected, purified (CaptureSelect CH1-XL)) VH: EVQLLESGGGLVQPGGSLRLSCTVSGFTSSNYDMSWVRQAPGKGLEWVSGISGTGRDTYYADSVKGRFTISRDNSKNTLSLQMNSLRADDTAVYFCARDRPVLRYFDWQPYGLDVWGKGTTVTVSS VL: QSALTQPPSASGSPGQSVTISCTGTSSDVGGYNYVSWYQQYPSKAPKLMIYEVSKRPSGVPDRFSGSKSGNTASLTVSGLQAEDEADYYCNSYAGSNLYVFGTGTKVTVL | – | – | – | – | – | – | Kd [1]: 4.5 nM
HB31 Fab (Fab, V domains shown) VH: EVQLLESGGGLVQPGGSLRLSCTVSGFTSSNYDMSWVRQAPGKGLEWVSGISGTGRDTYYADSVKGRFTISRDNSKNTLSLQMNSLRADDTAVYFCARDRPVLRYFDWQPYGLDVWGKGTTVTVSS VL: QSALTQPPSASGSPGQSVTISCTGTSSDVGGYNYVSWYQQYPSKAPKLMIYEVSKRPSGVPDRFSGSKSGNTASLTVSGLQAEDEADYYCNSYAGSNLYVFGTGTKVTVL | binds | binds | – | – | – | – | –
HB31 wild type (WT) IgG (antibody, V domains shown, copies: 2 + 2) VH: EVQLLESGGGLVQPGGSLRLSCTVSGFTSSNYDMSWVRQAPGKGLEWVSGISGTGRDTYYADSVKGRFTISRDNSKNTLSLQMNSLRADDTAVYFCARDRPVLRYFDWQPYGLDVWGKGTTVTVSS VL: QSALTQPPSASGSPGQSVTISCTGTSSDVGGYNYVSWYQQYPSKAPKLMIYEVSKRPSGVPDRFSGSKSGNTASLTVSGLQAEDEADYYCNSYAGSNLYVFGTGTKVTVL | – | – | – | – | – | – | Kd [1]: 1.6 nM
HB31 (IgG format) (antibody, V domains shown, also called HB31 wild type; WT) VH: EVQLLESGGGLVQPGGSLRLSCTVSGFTSSNYDMSWVRQAPGKGLEWVSGISGTGRDTYYADSVKGRFTISRDNSKNTLSLQMNSLRADDTAVYFCARDRPVLRYFDWQPYGLDVWGKGTTVTVSS VL: QSALTQPPSASGSPGQSVTISCTGTSSDVGGYNYVSWYQQYPSKAPKLMIYEVSKRPSGVPDRFSGSKSGNTASLTVSGLQAEDEADYYCNSYAGSNLYVFGTGTKVTVL | – | – | binds | binds | binds | binds | –
HB34 Fab (Fab, V domains shown) VH: EVQLLESGGGLVQPGGSLRLSCTVSGFTSSNYDMSWVRQAPGKGLEWVSGISGTGRDTYYADSVKGRFTISRDNSKNTLSLQMNSLRADDTAVYFCARDRPVLRYFDWQPYGLDVWGKGTTVTVSS VL: QSALTQPASVSGSPGQSITISCTGTSSDVGSYNLVSWYQQHPGKAPKLMIYEGSQRPSGVSNRFSGSKSGNTASLTISGLQAEDEADYYCCSYASSTSYVFGTGTKVTVL | binds | binds | – | – | – | – | –
HB34 (IgG format) (antibody, V domains shown) VH: EVQLLESGGGLVQPGGSLRLSCTVSGFTSSNYDMSWVRQAPGKGLEWVSGISGTGRDTYYADSVKGRFTISRDNSKNTLSLQMNSLRADDTAVYFCARDRPVLRYFDWQPYGLDVWGKGTTVTVSS VL: QSALTQPASVSGSPGQSITISCTGTSSDVGSYNLVSWYQQHPGKAPKLMIYEGSQRPSGVSNRFSGSKSGNTASLTISGLQAEDEADYYCCSYASSTSYVFGTGTKVTVL | – | – | binds | binds | binds | binds | binding result [8]: binds; binding result [9]: binds
HB315 (IgG format) (antibody, V domains shown) VH: EVQLLESGGGLAQPGGSLRLSCTASGFTFSNFAMNWVRQAPGKGLEWVSFINSGSGSTYYADSVKGRFTISRDNSENTLFLQMNSLRAEDTAVYYCAKDLGRAIFGLVIPEGAFDIWGQGTMVTVSS VL: EIVMTQSPSSLSASVGDRVTITCRASQSINNHLNWYQQKPGKAPKLLIYAASSLQSGVPSRFSGSGSGTDFTLTISSLQPADFATYHCQQSYGVPLTFGQGTKVEIK | – | – | binds | binds | binds | binds | binding result [8]: binds; fold stronger binding activity than HB31 and HB34 (ELISA) [10]: ≥ 4 fold; binding result [9]: binds
HB315 Fab (Fab, V domains shown) VH: EVQLLESGGGLAQPGGSLRLSCTASGFTFSNFAMNWVRQAPGKGLEWVSFINSGSGSTYYADSVKGRFTISRDNSENTLFLQMNSLRAEDTAVYYCAKDLGRAIFGLVIPEGAFDIWGQGTMVTVSS VL: EIVMTQSPSSLSASVGDRVTITCRASQSINNHLNWYQQKPGKAPKLLIYAASSLQSGVPSRFSGSGSGTDFTLTISSLQPADFATYHCQQSYGVPLTFGQGTKVEIK | binds | binds | – | – | – | – | –
CR9114 Fab (Fab, V domains shown, source: Expi293F, transient co-transfection, purified (CaptureSelect CH1-XL)) VH: QVQLVQSGAEVKKPGSSVKVSCKSSGGTSNNYAISWVRQAPGQGLDWMGGISPIFGSTAYAQKFQGRVTISADIFSNTAYMELNSLTSEDTAVYFCARHGNYYYYSGMDVWGQGTTVTVSS VL: QSALTQPPAVSGTPGQRVTISCSGSDSNIGRRSVNWYQQFPGTAPKLLIYSNDQRPSVVPDRFSGSKSGTSASLAISGLQSEDEAEYYCAAWDDSLKGAVFGGGTQLTVL | – | binds | – | – | – | – | –
047-09 4F04 Fab (Fab, V domains shown) VH: EVQLVESGGGLVQPGGSLRLSCAASGFTFNTYNMNWVRQAPGKGLEWVSYISSSSLSRYYADSVKGRFTISRDNAKNSLFLQMNSLRAEDTAVYYCARGAQAGYSSFFPPTTFWGQGTLVTVSS VL: EIVMTQSPATLSVSPGEGVTLSCRASQSVSSNLAWYQQKPGQAPRLLIYGASTRATGIPARFSGSGSGTEFTLTISSLQSEDFAVYYCQQYYNWPPLTFGGGTKVEIK | – | binds | – | – | – | – | –
